Test results from IntAct's records for PubMed 24125847.

B1: Sarcoplasmic reticulum histidine-rich calcium-binding protein (Homo sapiens), P23327 (parent)
chain: MGHHRPWLHASVLWAGVASLLLPPAMTQQLRGDGLGFRNRNNSTGVAGLSEEASAELRHHLHSPRDHPDENKDVSTENGHHFWSHPDREKEDEDVSKEYGHLLPGHRSQDHKVGDEGVSGEEVFAEHGGQARGHRGHGSEDTEDSAEHRHHLPSHRSHSHQDEDEDEVVSSEHHHHILRHGHRGHDGEDDEGEEEEEEEEEEEEASTEYGHQAHRHRGHGSEEDEDVSDGHHHHGPSHRHQGHEEDDDDDDDDDDDDDDDDVSIEYRHQAHRHQGHGIEEDEDVSDGHHHRDPSHRHRSHEEDDNDDDDVSTEYGHQAHRHQDHRKEEVEAVSGEHHHHVPDHRHQGHRDEEEDEDVSTERWHQGPQHVHHGLVDEEEEEEEITVQFGHYVASHQPRGHKSDEEDFQDEYKTEVPHHHHHRVPREEDEEVSAELGHQAPSHRQSHQDEETGHGQRGSIKEMSHHPPGHTVVKDRSHLRKDDSEEEKEKEEDPGSHEEDDESSEQGEKGTHHGSRDQEDEEDEEEGHGLSLNQEEEEEEDKEEEEEEEDEERREERAEVGAPLSPDHSEEEEEEEEGLEEDEPRFTIIPNPLDRREEAGGASSEEESGEDTGPQDAQEYGNYQPGSLCGYCSFCNRCTECESCHCDEENMGEHCDQCQHCQFCYLCPLVCETVCAPGSYVDYFSSSLYQALADMLETPEP
partner: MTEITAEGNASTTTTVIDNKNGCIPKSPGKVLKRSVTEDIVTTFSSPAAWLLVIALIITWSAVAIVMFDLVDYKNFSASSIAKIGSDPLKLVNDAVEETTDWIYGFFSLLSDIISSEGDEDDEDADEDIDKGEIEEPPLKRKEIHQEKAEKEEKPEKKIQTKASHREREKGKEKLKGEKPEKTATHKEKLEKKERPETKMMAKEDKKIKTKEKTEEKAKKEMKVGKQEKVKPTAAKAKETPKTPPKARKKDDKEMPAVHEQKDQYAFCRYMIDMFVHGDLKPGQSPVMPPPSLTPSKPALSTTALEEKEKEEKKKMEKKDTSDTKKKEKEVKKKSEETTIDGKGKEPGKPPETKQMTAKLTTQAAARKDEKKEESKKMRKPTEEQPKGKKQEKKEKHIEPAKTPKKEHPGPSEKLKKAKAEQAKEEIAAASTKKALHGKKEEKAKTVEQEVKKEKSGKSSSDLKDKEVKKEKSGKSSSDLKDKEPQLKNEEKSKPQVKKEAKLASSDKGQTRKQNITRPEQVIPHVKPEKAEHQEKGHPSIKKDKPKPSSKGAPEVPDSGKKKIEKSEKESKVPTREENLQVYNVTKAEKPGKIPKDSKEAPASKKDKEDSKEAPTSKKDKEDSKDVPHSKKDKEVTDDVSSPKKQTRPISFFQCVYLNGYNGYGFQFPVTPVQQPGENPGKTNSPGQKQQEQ
B2: Sarcoplasmic reticulum histidine-rich calcium-binding protein (Homo sapiens), P23327 (parent)
chain: B1 chain
partner: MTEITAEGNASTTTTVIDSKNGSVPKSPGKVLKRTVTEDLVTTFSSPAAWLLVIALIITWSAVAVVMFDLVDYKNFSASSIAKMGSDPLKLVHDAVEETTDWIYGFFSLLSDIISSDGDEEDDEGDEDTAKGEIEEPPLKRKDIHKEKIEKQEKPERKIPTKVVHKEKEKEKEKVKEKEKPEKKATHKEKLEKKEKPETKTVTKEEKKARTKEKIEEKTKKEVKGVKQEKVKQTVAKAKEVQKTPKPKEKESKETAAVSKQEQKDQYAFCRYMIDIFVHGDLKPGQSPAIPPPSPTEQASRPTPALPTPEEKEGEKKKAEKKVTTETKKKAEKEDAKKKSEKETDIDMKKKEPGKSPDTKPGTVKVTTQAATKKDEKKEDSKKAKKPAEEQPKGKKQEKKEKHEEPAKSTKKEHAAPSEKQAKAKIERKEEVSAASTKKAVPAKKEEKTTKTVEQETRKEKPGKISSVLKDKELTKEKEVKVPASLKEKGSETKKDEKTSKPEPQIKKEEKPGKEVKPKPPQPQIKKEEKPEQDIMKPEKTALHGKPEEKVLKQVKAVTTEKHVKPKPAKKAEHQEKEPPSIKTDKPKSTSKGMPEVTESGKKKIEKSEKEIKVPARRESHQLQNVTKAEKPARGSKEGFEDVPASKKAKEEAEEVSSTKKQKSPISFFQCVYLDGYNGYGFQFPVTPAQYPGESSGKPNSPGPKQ

Variants of: B1
Details: with trdn_mouse Trdn

Variant	effect of a mutation on the interaction
S96A	decreasing interaction

Variants of: B2
Details: with trdn_rabit TRDN

Variant	effect of a mutation on the interaction
S96A	decreasing interaction
